Positions count from the first letter of the chain named.
T1: S. aureus GatD (Staphylococcus aureus, UniProt A0A0H2WZ38)
T1 construct: full-length, 243 residues; pOPINF vector, E. coli Lemo21(DE3), IMAC and SEC; crystallised without MurT; dimer in crystal non-physiological
T1 sequence (A0A0H2WZ38 1-243): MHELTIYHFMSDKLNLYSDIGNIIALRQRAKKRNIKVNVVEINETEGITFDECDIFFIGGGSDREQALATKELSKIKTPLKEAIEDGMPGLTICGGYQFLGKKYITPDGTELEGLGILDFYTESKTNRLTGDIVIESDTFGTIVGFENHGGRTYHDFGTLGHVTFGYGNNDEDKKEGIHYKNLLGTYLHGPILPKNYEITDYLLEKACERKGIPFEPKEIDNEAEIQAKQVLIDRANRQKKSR

T2: S. aureus GatD C94A (from pET28a-murT-gatD-His6C94A) (Staphylococcus aureus strain COL, UniProt A0A0H2WZ38 1-243, C94A)
T2 sequence: T1 sequence (A0A0H2WZ38 1-243) with C94A

T3: S. aureus GatD H189A (from pET28a-murT-gatD-His6H189A) (Staphylococcus aureus strain COL, UniProt A0A0H2WZ38 1-243, H189A)
T3 sequence: T1 sequence (A0A0H2WZ38 1-243) with H189A

T4: S. aureus GatD R128A (from pET28a-murT-gatD-His6R128A) (Staphylococcus aureus strain COL, UniProt A0A0H2WZ38 1-243, R128A)
T4 sequence: T1 sequence (A0A0H2WZ38 1-243) with R128A

T5: S. aureus GatD wt (from pET28a-murT-gatD-His6) (Staphylococcus aureus strain COL, UniProt A0A0H2WZ38 1-243)
T5 construct: GatD, glutamine amidotransferase, Staphylococcus aureus strain COL, 243 amino acids; coding region amplified with murT as the murT-gatD operon; also called glutamine amidotransferase GatD
T5 sequence (looked up): T1 sequence (A0A0H2WZ38 1-243)

B1: S. aureus MurT (enzyme, Staphylococcus aureus strain COL, UniProt A0A0H2WZQ7 1-437, looked up)
chain: MRQWTAIHLAKLARKASRAVGKRGTDLPGQIARKVDTDILRKLAEQVDDIVFISGTNGKTTTSNLIGHTLKANNIQIIHNNEGANMAAGITSAFIMQSTPKTKIAVIEIDEGSIPRVLKEVTPSMMVFTNFFRDQMDRFGEIDIMVNNIAETISNKGIKLLLNADDPFVSRLKIASDTIVYYGMKAHAHEFEQSTMNESRYCPNCGRLLQYDYIHYNQIGHYHCQCGFKREQAKYEISSFDVAPFLYLNINDEKYDMKIAGDFNAYNALAAYTVLRELGLNEQTIKNGFETYTSDNGRMQYFKKERKEAMINLAKNPAGMNASLSVGEQLEGEKVYVISLNDNAADGRDTSWIYDADFEKLSKQQIEAIIVTGTRAEELQLRLKLAEVEVPIIVERDIYKATAKTMDYKGFTVAIPNYTSLAPMLEQLNRSFEGGQS
notes: MurT, Mur ligase family member of the MurT-GatD complex, Staphylococcus aureus strain COL; coding region amplified with gatD as the murT-gatD operon

Key:
[1] = molecular target: S. aureus MurT-GatD complex (Staphylococcus aureus, UniProt A0A0H2WZ38); conditions: 875 µM Gln, 35 µM complex, no lipid II; 50 mM Tris-d11, 500 mM NaCl, 10 mM MgCl2, pH meter reading 7.9 in D2O, 293 K
S. aureus GatD = molecular target: T1, S. aureus GatD; assay: X-ray crystal structure, […] Å; format: binding; conditions: co-purified glutamine; bound at surface of chain A to R128, outside the active site; MurT absent
[2] = molecular target: T2, S. aureus GatD C94A (from …); assay: co-purification (IMAC + SEC, SDS-PAGE); conditions: partners not purified
[3] = molecular target: T3, S. aureus GatD H189A (from …); assay: co-purification (IMAC + SEC, SDS-PAGE); conditions: partners not purified
[4] = molecular target: T4, S. aureus GatD R128A (from …); assay: co-purification (IMAC + SEC, SDS-PAGE); conditions: partners not purified
[5] = molecular target: T5, S. aureus GatD wt (from …); assay: co-purification (IMAC + SEC, SDS-PAGE); MurT and GatD-His6 co-expressed in E. coli from one plasmid; HisTrap then Superdex 200 in 100 mM Tris-HCl pH 8.2, 500 mM NaCl, 10 mM MgCl2, 5 mM 2-mercaptoethanol; molar ratio read from a 12% SDS-PAGE gel of the final samples; conditions: partners not purified

Row | Molecule | 1H-NMR glutaminase assay (Gln to Glu) [1] | X-ray crystal structure, 1.85 Å (S. aureus GatD) | stoichiometry N [2] | stoichiometry N [3] | stoichiometry N [4] | stoichiometry N [5]
1 | NC(=O)CC[C@H](N)C(=O)O [glutamine] | MurT-GatD wt can convert glutamine into glutamate with a first order rate constant | S. aureus GatD crystallized in the presence of its substrate, glutamine | – | – | – | –
2 | B1 | – | – | 1 MurT:GatD molar ratio | 1 MurT:GatD molar ratio | 1 MurT:GatD molar ratio | 1 MurT:GatD molar ratio

— article PMC5871853, “First insights of peptidoglycan amidation in Gram-positive bacteria - the high-resolution crystal structure of Staphylococcus aureus glutamine amidotransferase GatD” (Scientific Reports, 2018)
